Assay results as given in PMC8105722 (The Journal of Experimental Medicine, 2021).

Target: the molecule itself
Assay: crystal structure

B1: Rv0812 (Mycobacterium tuberculosis bifunctional aminodeoxychorismate lyase / D-amino acid transaminase) (enzyme)
chain: MVVTLDGEILQPGMPLLHADDLAAVRGDGVFETLLVRDGRACLVEAHLQRLTQSARLMDLPEPDLPRWRRAVEVATQRWVASTADEGALRLIYSRGREGGSAPTAYVMVSPVPARVIGARRDGVSAITLDRGLPADGGDAMPWLIASAKTLSYAVNMAVLRHAARQGAGDVIFVSTDGYVLEGPRSTVVIATDGDQGGGNPCLLTPPPWYPILRGTTQQALFEVARAKGYDCDYRALRVADLFDSQGIWLVSSMTLAARVHTLDGRRLPRTPIAEVFAELVDAAIVSDR
notes: also called Mtb Rv0812; WT-Rv0812
- stoichiometry N: 2
